Experimental data: the supplement of paper PMC12764529
± gives the half width of the 95% confidence interval.

assay: folding stability dG unfold from trypsin proteolysis; higher = more stable
In short: (§1)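 K50 was inferred by Bayesian fitting of sequencing counts obtained after protease digestion of designed mini-proteins. Unfolding free energy was derived by comparison with a sequence-predicted unfolded-state K50 and a shared folded-state K50, for each protease or both combined. The mini-proteins were under 80 residues, had no cysteine, were carried in a PA-tagged cDNA display construct, and were kept only if AlphaFold2 dimer inter-PAE exceeded 15.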

Row | Sequence | folding stability dG unfold [kcal/mol]
1 | SAMTITVPPDVSLEQIAKLLGYPNLKSFTKRKVTPNLTPATLTVPEDPNKVIKVLYRPADNYTEVIVLQSAG [r14_713_JUSTAS] | 1.02 ± 0.1
2 | SAGGPATLTFEFPAEDGSRVRVEVTVEEVPFVDPRTGEPVAPFLKVHVKVTVFDEDGEAHEAEFELLSAGGS [r8_474_TrMRF] | 2.22 ± 0.043
3 | SAGGSKVEIWIRFGDYWIRITVEPKPNGRKKVSVEVYNPNGEPMWSITFEIDPDGKIKDIDITPMPSAGGSA [r2_260_TrROS] | 4.53 ± 0.23
4 | SEMTAEELAARLAERLAEEHPGEEVTVEIEVEAEVVDEETGETRTVRVTVTLRFRDGKVEVVDVKVEELPSA [r9_361_TrROS_Hall] | 3.43 ± 0.092
5 | SAGGFWLKNPNGHYIQVNVEVEWEPRRDPDNGKPTWEPKIEINVEVYDPNGEKRPIPEDQAKDLLKKLSAGG [r13_809_TrROS] | 0.604 ± 0.073
6 | MRFEFPLEDGGRVEVEMRPLPDGPVVLDVKITLPNGEEITIPFVFPREEFPDMDMEEIARRVVEEAIRLAKS [r1_92_TrMRF] | 3.463 ± 0.033
7 | SAEKIYYKVKVKVEIEKDGKPDIELEIEFIVSPEIPPEKVKEFIEKFLKSKGYKIKKIEIETEPIPSLESAG [r14_979_TrMRF] | 3.95 ± 0.31
8 | SAGGSAGGSAGGSMYTLLSTENRPDPNSSKPVTTKTYKLPDGSTVVVTEYPDSVEEKPLVSAGGSAGGSAGG [r7_479_JUSTAS] | -0.00111 ± 0.087
9 | SAGGSAGGSMIDDIVEKLKIPPGTRIVFNDGEVKYFDNREDIKEWAKNGYPAEKLKNIVAFPESAGGSAGGS [r12_430_TrMRF] | -0.276 ± 0.15
10 | SAGMKAYIVSVEKNEDGTETIKLKVYFLDKNGKVVETKEITIKKGETIKITFPNGKTITVPAKDLKLVKSAG [r5_137_TrROS_Hall] | 2.02 ± 0.083
11 | SSSSMKTVFDPNRPYPRTVLVTFLPDGTVVITAPGKKLSTVKVEIEPPPPLELRPRVSPNGERSPGYLRLGS [r1_496_JUSTAS] | 1.1 ± 0.18
12 | SAGGSAGGSAGGPNNKPKPKQVTFDIEIEDIEIDPEHGLISIEIRFPDGGKEITARIPISAGGSAGGSAGGS [r10_427_TrROS] | 0.14 ± 0.059
13 | SAGGSAGGSAGGIEDMAEKNPDWKIVEPIEIEIPYYNPDGKWYEVEYTIFVIVPPGDEISAGGSAGGSAGGS [r10_0_TrROS] | 1.46 ± 0.16
14 | SAGGSAGGSAGGSAGRLVKETKTTSYIFTFKKPTGEPISKKTSFVTSSLILLSDPSKISSAGGSAGGSAGGS [r4_450_JUSTAS] | 4.18 ± 0.37
15 | SAMKVEIVEVKKNEDGSEEITIKIVVPDDKDMTPEELAALLKKEFGVDEVKVEVVDENGYKVITITIKRSAG [r14_228_TrROS_Hall] | 4.03 ± 0.26
16 | SAGGSAMRIKVTLENGEEIEIEIEESMTEEEVKELAEELAKKLAEELGIKEVKVEVEEVELPEEEESAGGSA [r15_33_TrROS_Hall] | 1.68 ± 0.11
17 | SAGGSAGGSATTTTAPDGSPVTVYPETGVARVYDPATGLWTRLTTRPDGVVEETPLPPGAPLESAGGSAGGS [r12_997_JUSTAS] | -0.687 ± 0.23
18 | SAGGSAGGKITINGKEYEIVEVKYDKETNTLHFLIKNKDGTLLKISISPNGKIEIKEVPAEELLSAGGSAGG [r6_699_TrROS_Hall] | 3.41 ± 0.23
19 | SAGGGAAEEAARALIDEAKAALGLSEISEVVLTREGDGVTMTVRFPGKGLVITIDLAAGVVTAVEDVSAGGS [r16_171_JUSTAS] | 2.18 ± 0.034
20 | SAGGSAGGSAGGSKIYKLKVNGSVEKLIENLKKAGFKVEILSVYYDPETKELYVLFKISSAGGSAGGSAGGS [r4_315_TrMRF] | 3.85 ± 0.1
21 | SAGGSAGGSAGGNVRNLDISLDPEEGTIKIKATLPENGQTWEITIPVQIPLPPPPPGDNSAGGSAGGSAGGS [r10_331_TrROS] | 0.49 ± 0.1

Row | Sequence | folding stability dG unfold [kcal/mol]
22 | SAGMKTLEKTGSAAKIEEAIAAGKSLEEVFETAGKDGGTSRTLTEPNRTLTFSGETSKPGVATLTTIPESAG [r5_343_JUSTAS] | -0.662 ± 0.55
23 | SAGGSAGGSGMTLEEIAERLKEEYNAPEVKVTRDPSKPVYTVTVTLADGSTKTYTIYVPEELGSAGGSAGGS [r12_114_JUSTAS] | 2.63 ± 0.047
24 | SAGGMTLEITFPPNVKKVRVEFDEETNEVKVEVEEVDGELVIRVEVPPGQELSEEELERLKKLLEELSAGGS [r16_359_TrROS_Hall] | 1.34 ± 0.037
25 | SAGGSAGKKPVEFKVKIMIFNPENGDMYMIEMTITIDPDGQIKIKIKLPDPPRLPPGMVIFIMVYISAGGSA [r15_488_TrROS] | 4.08 ± 0.16
26 | SAGGSAGGSAKAKIKKVEVEKEGDKLRVTAEIELEDGYVLKVSFEFKDDEIKMEIEIVPLKDSAGGSAGGSA [r18_79_TrROS_Hall] | 3.02 ± 0.32
27 | SAGGPPVTLTLTLTFTETRTVRNPATGETVTVEKVTLTLTITLEPGMSKEQLEALLKELRELFPSLESAGGS [r8_306_TrROS_Hall] | 3.53 ± 0.25
28 | SAGGSAGGSAGGPKVEIVEVTVEGDKVTIRVKNEETGEWVTLEVTLKDLPKVTFVLKPKSAGGSAGGSAGGS [r10_655_TrROS_Hall] | 1.17 ± 0.032
29 | SAGGSAGGSAKVTYTENSVTIHAKVPEKPLKIEIPNTGKVVTIDLDKEVTVTFPVPKPPDESAGGSAGGSAG [r3_185_TrMRF] | -0.786 ± 0.07
30 | SAGGGPEEIRRAAEALAAELAAELGLEVVEVEVEVREDGTVTVRITVRLPDGSKLEITLTLPAGAPLSAGGS [r8_175_TrROS_Hall] | 2.03 ± 0.05
31 | SAGSLEKVTESSTSSDKVEVTTTTLTPLSNPSVPVQYVKTTTTTTLIDPATGKTLSTTTTTTTTPLPAASAG [r5_300_JUSTAS] | -0.0274 ± 0.047
32 | SAGGSAGGSEVKVLVYPPKGPPRLFADDVPIETLVAQFTAEDPPEPLVLVTKEEAEKLGFPLESAGGSAGGS [r12_379_TrMRF] | 0.435 ± 0.047
33 | SVFEMPIKLTLKRRDPDGKGRKVKVTIRIRFEMPPNLPPDDKNDPERRKMHQMMHSNMHERAESLADPLASA [r9_237_TrROS] | 1.41 ± 0.095
34 | SAGGKEKKKEKEEKKKKPKPKFIKIKLSPEELLKLAKELPNIDRIFVEVDGKLYEFDAKTGKIVEVDSAGGS [r16_214_TrROS_Hall] | 1.28 ± 0.1
35 | SAGGMKIKVTVEVTFPDGTVRTFPVPDATSEEEVRAILAERGFGDLADVPIRITEREPVPAVPPEELLSAGG [r13_493_JUSTAS] | 1.68 ± 0.033
36 | SAGGSAGGSAGGGPSSMVTVETKEELLTLPNGEKLIKTTTTTKTPTATTTTTTVLPAELLSAGGSAGGSAGG [r7_682_JUSTAS] | 0.0664 ± 0.063
37 | SAGGSADENKKPMYFIMVKIEIKFGGKDHKIEIMIPLDNVEKLAKNIAEELGMEIKDVTVSLYPIDSAGGSA [r15_535_TrROS] | 2.79 ± 0.13
38 | SAGGIKEFADTLQDHGGTVTVEPVNNGSLKVSIQHRDPEDGRMYRMEIEIPPENNKLEIDDWEPYPNSAGGS [r16_613_TrROS] | 0.071 ± 0.15
39 | SAGGRAEEFATFLAELLRALLPPGEKVRATAVVTPEGVVVRVEHPLGFVAEALVKGDKLVRLELRPVSAGGS [r8_287_TrMRF] | 3.17 ± 0.13
40 | SAGGPMYIVIKVEVWNPDNGKKREINIVIPIPPGMTPEQMLEKAKELARTIAEENGYEVRIDEIHIFSAGGS [r8_312_TrROS] | 3.13 ± 0.087
41 | SAGGSAGGSAGGMVVRVTKNGTSTEIIVDSEEEAKELLKPLFPDDSEVEIEFVSEEELSSAGGSAGGSAGGS [r10_1167_JUSTAS] | 0.0397 ± 0.07
42 | SAGGSAGGSEKIIEELKKKFPGLKIDKIEITVKKKKITIELKPPPKVYLTKEELEKKGYKIEKSAGGSAGGS [r12_3_TrROS_Hall] | 1.33 ± 0.041

assay: folding stability dG unfold from chymotrypsin proteolysis; higher = more stable
In short: as §1

Row | Sequence | folding stability dG unfold [kcal/mol]
43 | SAMTITVPPDVSLEQIAKLLGYPNLKSFTKRKVTPNLTPATLTVPEDPNKVIKVLYRPADNYTEVIVLQSAG [r14_713_JUSTAS] | 0.822 ± 0.3
44 | SAGGPATLTFEFPAEDGSRVRVEVTVEEVPFVDPRTGEPVAPFLKVHVKVTVFDEDGEAHEAEFELLSAGGS [r8_474_TrMRF] | 4.21 ± 0.075
45 | SAGGSKVEIWIRFGDYWIRITVEPKPNGRKKVSVEVYNPNGEPMWSITFEIDPDGKIKDIDITPMPSAGGSA [r2_260_TrROS] | 5.03 ± 0.14
46 | SEMTAEELAARLAERLAEEHPGEEVTVEIEVEAEVVDEETGETRTVRVTVTLRFRDGKVEVVDVKVEELPSA [r9_361_TrROS_Hall] | 4.49 ± 0.066
47 | SAGGFWLKNPNGHYIQVNVEVEWEPRRDPDNGKPTWEPKIEINVEVYDPNGEKRPIPEDQAKDLLKKLSAGG [r13_809_TrROS] | 1.64 ± 0.082
48 | MRFEFPLEDGGRVEVEMRPLPDGPVVLDVKITLPNGEEITIPFVFPREEFPDMDMEEIARRVVEEAIRLAKS [r1_92_TrMRF] | 5.035 ± 0.038
49 | SAEKIYYKVKVKVEIEKDGKPDIELEIEFIVSPEIPPEKVKEFIEKFLKSKGYKIKKIEIETEPIPSLESAG [r14_979_TrMRF] | 4.86 ± 0.13
50 | SAGGSAGGSAGGSMYTLLSTENRPDPNSSKPVTTKTYKLPDGSTVVVTEYPDSVEEKPLVSAGGSAGGSAGG [r7_479_JUSTAS] | -0.122 ± 0.63
51 | SAGGSAGGSMIDDIVEKLKIPPGTRIVFNDGEVKYFDNREDIKEWAKNGYPAEKLKNIVAFPESAGGSAGGS [r12_430_TrMRF] | 0.491 ± 0.1
52 | SAGMKAYIVSVEKNEDGTETIKLKVYFLDKNGKVVETKEITIKKGETIKITFPNGKTITVPAKDLKLVKSAG [r5_137_TrROS_Hall] | 3.703 ± 0.033
53 | SSSSMKTVFDPNRPYPRTVLVTFLPDGTVVITAPGKKLSTVKVEIEPPPPLELRPRVSPNGERSPGYLRLGS [r1_496_JUSTAS] | 1.76 ± 0.14
54 | SAGGSAGGSAGGPNNKPKPKQVTFDIEIEDIEIDPEHGLISIEIRFPDGGKEITARIPISAGGSAGGSAGGS [r10_427_TrROS] | 0.27 ± 0.11
55 | SAGGSAGGSAGGIEDMAEKNPDWKIVEPIEIEIPYYNPDGKWYEVEYTIFVIVPPGDEISAGGSAGGSAGGS [r10_0_TrROS] | 2.12 ± 0.075
56 | SAGGSAGGSAGGSAGRLVKETKTTSYIFTFKKPTGEPISKKTSFVTSSLILLSDPSKISSAGGSAGGSAGGS [r4_450_JUSTAS] | 4.6 ± 0.39
57 | SAMKVEIVEVKKNEDGSEEITIKIVVPDDKDMTPEELAALLKKEFGVDEVKVEVVDENGYKVITITIKRSAG [r14_228_TrROS_Hall] | 3.55 ± 0.15
58 | SAGGSAMRIKVTLENGEEIEIEIEESMTEEEVKELAEELAKKLAEELGIKEVKVEVEEVELPEEEESAGGSA [r15_33_TrROS_Hall] | 2.96 ± 0.054
59 | SAGGSAGGSATTTTAPDGSPVTVYPETGVARVYDPATGLWTRLTTRPDGVVEETPLPPGAPLESAGGSAGGS [r12_997_JUSTAS] | 0.6 ± 0.079
60 | SAGGSAGGKITINGKEYEIVEVKYDKETNTLHFLIKNKDGTLLKISISPNGKIEIKEVPAEELLSAGGSAGG [r6_699_TrROS_Hall] | 3.74 ± 0.12
61 | SAGGGAAEEAARALIDEAKAALGLSEISEVVLTREGDGVTMTVRFPGKGLVITIDLAAGVVTAVEDVSAGGS [r16_171_JUSTAS] | 2.018 ± 0.0088
62 | SAGGSAGGSAGGSKIYKLKVNGSVEKLIENLKKAGFKVEILSVYYDPETKELYVLFKISSAGGSAGGSAGGS [r4_315_TrMRF] | 4.57 ± 0.068
63 | SAGGSAGGSAGGNVRNLDISLDPEEGTIKIKATLPENGQTWEITIPVQIPLPPPPPGDNSAGGSAGGSAGGS [r10_331_TrROS] | 0.502 ± 0.12
